Results on 56 variants are retold here after the MegaScale stability set (Tsuboyama et al. 2023).

To fix the notation:
B1: r4_43_TrROS_Hall (parent)
chain: DLVTIKVPLENLEEIKKAAEKAGFKIVSISYDKENKEVTIVIEKKK

The data set covers variants of B1. Kind of data set: folding stability dG (cDNA display proteolysis); higher = more stable. The following applies: PBS, room temperature.
For the variant DLVTIKVPLENLEEIKKAAEKAGFKIVSISYDKENKEVTIWIEKKK, the “folding stability dG” value stood at 4.13 kcal/mol.

In the case of DLVTIKVPLENLEEIKKAAEKAGFKIVSISYDKENKEVTICIEKKK, the “folding stability dG” value was found to be 3.33 kcal/mol. To DLVTIKVPLENLEEIKKAAEKAGFKIVSISYDKENKEVTIMIEKKK belongs 3.48 kcal/mol; to DLVTIKVPLENLEEIKKAAEKAGFKIVSISYDKENKEVTIVIEKKN, 3.49 kcal/mol. Take DLVTIKVPLENLEEIKKAAEKAGFKIVSISYDKENKEVTIVIEKKI: the “folding stability dG” value was determined as 3.61 kcal/mol. DLVTIKVPLENLEEIKKAAEIAGFKIVSISYDKENKEVTIVIEKKK: the “folding stability dG” value was determined as 3.93 kcal/mol.

As to DLVTIKVPLENLEEIKKAAEFAGFKIVSISYDKENKEVTIVIEKKK, the “folding stability dG” value was found to be 4.43 kcal/mol.

In the case of DLVTIQVPLENLEEIKKAAEKAGFKIVSISYDKENKEVTIVIEKKK, the “folding stability dG” value came to 3.04 kcal/mol. As for DLVTIYVPLENLEEIKKAAEKAGFKIVSISYDKENKEVTIVIEKKK, the “folding stability dG” value came to 3.48 kcal/mol. To DLVTIMVPLENLEEIKKAAEKAGFKIVSISYDKENKEVTIVIEKKK belongs 3.31 kcal/mol; to DLVTIKVPLENLEEIKKAAEKAGFKIVSISYTKENKEVTIVIEKKK, 3.81 kcal/mol. For DLVTIKVPIENLEEIKKAAEKAGFKIVSISYDKENKEVTIVIEKKK, the “folding stability dG” value was 3.61 kcal/mol. As to DLVTIKVPQENLEEIKKAAEKAGFKIVSISYDKENKEVTIVIEKKK, the “folding stability dG” value is 3.49 kcal/mol.

Regarding DLVTIKVPLENLEEIKKAAEKAGFKIVSISYDKENKEVTIVIEKYK, the “folding stability dG” value came to 4.47 kcal/mol. Under DLVTIKVPLENLEEIKKAAEKAGFKIVSISYDKENKEVTIVIEKPK stands 3.64 kcal/mol; under DLVTIKVPLENLEEIKKAAEKAGFKIVKISYDKENKEVTIVIEKKK, 3.52 kcal/mol. Regarding DLVTIKVPLENLEEIKKAAEKAGFKIVYISYDKENKEVTIVIEKKK, the “folding stability dG” value came out at 3.88 kcal/mol. Take DLVTIKVPLENLEEIKKAAEKAGFKIVMISYDKENKEVTIVIEKKK: the “folding stability dG” value was found to be 3.28 kcal/mol. Take DLVTIKVPLENLEEIKKAAEKAGFKIVCISYDKENKEVTIVIEKKK: the “folding stability dG” value amounted to 3.69 kcal/mol. Take DLVTIKVPLENLEEIKKAAEKAGFKIVGISYDKENKEVTIVIEKKK: the “folding stability dG” value stood at 3.53 kcal/mol. Regarding DLVTIKVPLENLEEIKKAAEKAGFKIVSIDYDKENKEVTIVIEKKK, the “folding stability dG” value was found to be 3.5 kcal/mol. To DLVTIKVPLENLEEIKKAAEKAGFKSVSISYDKENKEVTIVIEKKK belongs 1.81 kcal/mol; to DLVTIKVPLENLEEIKKAAEKAGFKMVSISYDKENKEVTIVIEKKK, 3.31 kcal/mol.

As for DLVTIKVPLENLEEIKKAAEKAGFKKVSISYDKENKEVTIVIEKKK, the “folding stability dG” value is 1.31 kcal/mol. On to DLVTIKVPLENLEEIKKAAEKAGFKIVSISYDEENKEVTIVIEKKK, for which the “folding stability dG” value came to 3.43 kcal/mol. Under DLVTIKVPLENLEEIKKAAEKAGFKIVSISYDLENKEVTIVIEKKK stands 3.8 kcal/mol.

With DLVTIKVPLENLEEIKKAAEKAGFKIVSISYDIENKEVTIVIEKKK, the “folding stability dG” value came out at 3.85 kcal/mol.

For the variant DLVTIKVPLENLEEIKKAAEKAGFKIVSISSDKENKEVTIVIEKKK, the “folding stability dG” value is 2.83 kcal/mol. On to DLVTIKVPLENLEEIKKAAEKAGFKIVSISQDKENKEVTIVIEKKK, for which the “folding stability dG” value was 3.23 kcal/mol.

On to DLVLIKVPLENLEEIKKAAEKAGFKIVSISYDKENKEVTIVIEKKK, for which the “folding stability dG” value came out at 3.46 kcal/mol. Consider DLVVIKVPLENLEEIKKAAEKAGFKIVSISYDKENKEVTIVIEKKK, for which the “folding stability dG” value was 3.48 kcal/mol. To DLVTIKVPLENLESIKKAAEKAGFKIVSISYDKENKEVTIVIEKKK belongs 3.7 kcal/mol; to DLVTIKVPLENLEGIKKAAEKAGFKIVSISYDKENKEVTIVIEKKK, 3.86 kcal/mol; to DLVTIKVPLENLETIKKAAEKAGFKIVSISYDKENKEVTIVIEKKK, 3.76 kcal/mol. Take DLVTIKVPLENLECIKKAAEKAGFKIVSISYDKENKEVTIVIEKKK: the “folding stability dG” value turned out to be 4.03 kcal/mol. For DLVTIKVPLENLENIKKAAEKAGFKIVSISYDKENKEVTIVIEKKK, the “folding stability dG” value was determined as 3.83 kcal/mol. Under DLVTIKVPLENLEEIKKAAEKAGFKITSISYDKENKEVTIVIEKKK stands 3.77 kcal/mol; under DLVTIKVPLENLEEIKKAAEKAGFKIASISYDKENKEVTIVIEKKK, 3.48 kcal/mol; under DLVTIKVPLENLEEIKKAAEKAGFKIHSISYDKENKEVTIVIEKKK, 3.96 kcal/mol. With DLVTIKVPLENLEEIKKAAEKAGFKILSISYDKENKEVTIVIEKKK, the “folding stability dG” value came out at 3.51 kcal/mol.

Turning to DLVTIKVPLENLEEIKKAAVKAGFKIVSISYDKENKEVTIVIEKKK, the “folding stability dG” value turned out to be 3.56 kcal/mol. DLVTIKVPLENLEEIKKAAKKAGFKIVSISYDKENKEVTIVIEKKK: the “folding stability dG” value is 3.62 kcal/mol. On to DLVTIKVPLENLEEIKKAALKAGFKIVSISYDKENKEVTIVIEKKK, for which the “folding stability dG” value was 3.96 kcal/mol. In the case of DLVTIKVPLENLEEIKNAAEKAGFKIVSISYDKENKEVTIVIEKKK, the “folding stability dG” value stood at 3.17 kcal/mol.

For RLVTIKVPLENLEEIKKAAEKAGFKIVSISYDKENKEVTIVIEKKK, the “folding stability dG” value was 3.42 kcal/mol.

Regarding CLVTIKVPLENLEEIKKAAEKAGFKIVSISYDKENKEVTIVIEKKK, the “folding stability dG” value is 3.7 kcal/mol. To YLVTIKVPLENLEEIKKAAEKAGFKIVSISYDKENKEVTIVIEKKK belongs 3.87 kcal/mol; to DLVTIKVPLCNLEEIKKAAEKAGFKIVSISYDKENKEVTIVIEKKK, 3.35 kcal/mol; to DLVTIKVPLVNLEEIKKAAEKAGFKIVSISYDKENKEVTIVIEKKK, 3.68 kcal/mol.

As for DLVTIKVPLTNLEEIKKAAEKAGFKIVSISYDKENKEVTIVIEKKK, the “folding stability dG” value worked out at 3.75 kcal/mol. Under DLVTIKVPLENLEEIKKAAEKCGFKIVSISYDKENKEVTIVIEKKK stands 3.79 kcal/mol. Take DVVTIKVPLENLEEIKKAAEKAGFKIVSISYDKENKEVTIVIEKKK: the “folding stability dG” value amounted to 3.91 kcal/mol. Turning to DCVTIKVPLENLEEIKKAAEKAGFKIVSISYDKENKEVTIVIEKKK, the “folding stability dG” value turned out to be 3.41 kcal/mol. Consider DTVTIKVPLENLEEIKKAAEKAGFKIVSISYDKENKEVTIVIEKKK, for which the “folding stability dG” value was determined as 3.93 kcal/mol. DRVTIKVPLENLEEIKKAAEKAGFKIVSISYDKENKEVTIVIEKKK: the “folding stability dG” value is 3.58 kcal/mol. Under DLVTIKVPLENLEEIKKAAEKAGWKIVSISYDKENKEVTIVIEKKK stands 3.68 kcal/mol.
